Measurements: PMC7939381 (2020)
Several values for one entry are separate records, joined by “and”; a condition that tells them apart may be missing. Identical values can stand only once. Like-named read-outs stand apart in the source and are kept apart here. Primed or numbered codes have the meaning given here. Where no end group is shown, it is not given here. [ ]: non-standard residue; d: D form. The star is where a group is joined. PEG2′ = short PEG linker placed between the N-terminal FITC label and the peptide; FITC = O=C1OC2(c3ccc(O)cc3Oc3cc(O)ccc32)c2ccc(NC(=S)*)cc21; pT = C[C@@H](OP(=O)(O)O)[C@H](N)C(=O)O; pS = N[C@@H](COP(=O)(O)O)C(=O)O

B1: fluorescently labeled peptide 11, APN 36–73 pSer43 pThr63 (peptide)
peptide: EKNKNAN[pS]SPVASTTPSASATTNPASA[pT]TLDQSKAWNR
modifications: not fully specified (N-terminus); also: FITC via PEG2 linker, site not given here
B2: 14-3-3β/α, full length, N-terminally His6-tagged (natural protein)
chain: MTMDKSELVQKAKLAEQAERYDDMAAAMKAVTEQGHELSNEERNLLSVAYKNVVGARRSSWRVISSIEQKTERNEKKQQMGKEYREKIEAELQDICNDVLELLDKYLIPNATQPESKVFYLKMKGDYFRYLSEVASGDNKQTTVSNSQQAYQEAFEISKKEMQPTHPIRLGLALNFSVFYYEILNSPEKACSLAKTAFDEAIAELDTLNEESYKDSTLIMQLLRDNLTLWTSENQGDEGDAGEGEN
B3: fluorescently labeled peptide 7, APN 36–73 pSer43 (peptide)
peptide: EKNKNAN[pS]SPVASTTPSASATTNPASATTLDQSKAWNR
modifications: not fully specified (N-terminus); also: FITC via PEG2 linker, site not given here
B4: 14-3-3σ, full length, N-terminally His6-tagged (natural protein)
chain: MERASLIQKAKLAEQAERYEDMAAFMKGAVEKGEELSCEERNLLSVAYKNVVGGQRAAWRVLSSIEQKSNEEGSEEKGPEVREYREKVETELQGVCDTVLGLLDSHLIKEAGDAESRVFYLKMKGDYYRYLAEVATGDDKKRIIDSARSAYQEAMDISKKEMPPTNPIRLGLALNFSVFHYEIANSPEEAISLAKTTFDEAMADLHTLSEDSYKDSTLIMQLLRDNLTLWTADNAGEEGGEAPQEPQS
B5: 14-3-3η, full length, N-terminally His6-tagged (natural protein)
chain: MGDREQLLQRARLAEQAERYDDMASAMKAVTELNEPLSNEDRNLLSVAYKNVVGARRSSWRVISSIEQKTMADGNEKKLEKVKAYREKIEKELETVCNDVLSLLDKFLIKNCNDFQYESKVFYLKMKGDYYRYLAEVASGEKKNSVVEASEAAYKEAFEISKEQMQPTHPIRLGLALNFSVFYYEIQNAPEQACLLAKQAFDDAIAELDTLNEDSYKDSTLIMQLLRDNLTLWTSDQQDEEAGEGN

Experiments:
[1] = target: B5; assay: FP
[2] = target: B4; assay: FP
[3] = target: B5; assay: FP
[4] = target: B2; assay: FP
[5] = target: T1, 14-3-3ζ, full length, N-terminally His6-tagged (human, UniProt P63104 1-245); assay: FP
T1 chain: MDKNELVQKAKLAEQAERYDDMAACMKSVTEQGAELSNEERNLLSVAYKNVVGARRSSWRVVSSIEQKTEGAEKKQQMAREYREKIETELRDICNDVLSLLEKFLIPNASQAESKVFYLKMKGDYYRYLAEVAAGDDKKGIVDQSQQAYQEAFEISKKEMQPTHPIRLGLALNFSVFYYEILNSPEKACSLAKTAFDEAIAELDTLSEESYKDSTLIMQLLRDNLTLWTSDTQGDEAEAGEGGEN

[6] = target: B4; assay: FP
[7] = target: T2, 14-3-3ε, full length, N-terminally His6-tagged (human, UniProt P62258 1-255); assay: FP
T2 chain: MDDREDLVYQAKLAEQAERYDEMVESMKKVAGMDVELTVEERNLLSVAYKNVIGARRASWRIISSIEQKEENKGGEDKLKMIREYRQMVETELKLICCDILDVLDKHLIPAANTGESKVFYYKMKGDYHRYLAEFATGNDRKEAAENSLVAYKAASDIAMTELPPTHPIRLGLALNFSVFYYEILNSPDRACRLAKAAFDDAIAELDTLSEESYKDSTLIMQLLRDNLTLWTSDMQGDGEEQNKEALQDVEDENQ

[8] = target: B5; assay: FP
[9] = target: B2; assay: FP
[10] = target: T3, 14-3-3γ, full length, N-terminally His6-tagged (human, UniProt P61981 1-247); assay: FP
T3 chain: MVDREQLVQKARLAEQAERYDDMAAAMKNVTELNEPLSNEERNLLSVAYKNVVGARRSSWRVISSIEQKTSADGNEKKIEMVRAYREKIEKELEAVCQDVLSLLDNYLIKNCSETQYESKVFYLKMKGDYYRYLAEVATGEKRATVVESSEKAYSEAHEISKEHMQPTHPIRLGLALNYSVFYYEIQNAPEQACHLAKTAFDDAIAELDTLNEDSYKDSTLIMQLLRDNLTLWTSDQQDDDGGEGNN

[11] = target: T4, 14-3-3θ, full length, N-terminally His6-tagged (human, UniProt P27348 1-245); assay: FP
T4 chain: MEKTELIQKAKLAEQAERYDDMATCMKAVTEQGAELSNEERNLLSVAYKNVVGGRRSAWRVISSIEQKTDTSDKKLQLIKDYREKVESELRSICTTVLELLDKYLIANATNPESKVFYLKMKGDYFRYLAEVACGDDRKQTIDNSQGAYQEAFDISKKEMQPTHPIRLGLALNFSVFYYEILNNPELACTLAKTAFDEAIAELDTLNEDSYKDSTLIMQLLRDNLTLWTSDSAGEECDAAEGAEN

[12] = target: peptide 13; assay: FP
[13] = target: B2; assay: FP
[14] = target: B5; assay: ITC
[15] = target: B5; assay: ITC; replicate B
[16] = target: B5; assay: ITC; replicate A
[17] = target: peptide 13; assay: FP; remark: listed apart in the source

{FITC-PEG2′}-EKNKNAN[pS]SPVASTTPSASATTNPASATTLDQSKAWNR (also: second phosphorylation within Ser61–Thr64, site not given here) [fluorescently labeled peptide 10, APN 36–73, bis-phosphorylated] was tested, and the Kd [1] was 0.42 µM, the Kd [2] was 6.6 µM and the Kd [3] was 0.42 µM. The Kd [4] was 0.88 µM.

B1 showed a Kd [2] of 1.8 µM and a Kd [4] of 0.11 µM.

{FITC-PEG2′}-NKNAN[pS]SPV [FITC-labeled peptide 1, APN 38–46 pSer43] showed a Kd [5] of 1.2 µM, a Kd [6] of 3.9 µM and a Kd [7] of 1.1 µM. For the same binder, the Kd [8] was 0.21 µM, the Kd [9] was 0.7 µM and the Kd [10] was 1.16 µM. It also gave a Kd [11] of 2 µM, a Kd [2] of 3.5 µM and a Kd [4] of 0.71 µM.

Work on B2 yielded a Kd [12] of over 167 µM.

Binder B3 has a Kd [2] of over 167 µM and a Kd [4] of 60 µM.

B4 gave a Kd [12] of over 167 µM.

{FITC-PEG2′}-EKNKNAN[pS]SPVASTTPSASATTNPASATTLDQSKAWNR (also: second phosphorylation within Ser61–Thr64, site not given here) [fluorescently labeled peptide 12, APN 36–73, bis-phosphorylated] showed a Kd [1] of 0.18 µM, a Kd [2] of 4.1 µM and a Kd [3] of 0.18 µM. The Kd [4] was 0.45 µM.

With {FITC-PEG2′}-EKNKNAN[pS]SPVASTTPSASATTNPASATTLDQSKAWNR (also: second phosphorylated Ser/Thr, site not given here) [fluorescently labeled peptide 9, APN 36–73, bis-phosphorylated] the Kd [1] was 15 µM, the Kd [2] was over 167 µM and the Kd [3] was 15 µM. It also gave a Kd [4] of 23 µM.

TTNPASATT (also: one phosphorylated Ser/Thr within Ser61–Thr64) [peptide 14, monophosphorylated APN 9-mer (noncanonical site of peptide 10)] showed a Kd [1] of 70 µM and a Kd [13] of over 167 µM.

Work on {FITC-PEG2′}-EKNKNAN[pS]SPVASTTPSASATTNPASATTLDQSKAWNR (also: second phosphorylated Ser/Thr, site not given here) [fluorescently labeled peptide 8, APN 36–73, bis-phosphorylated] yielded a Kd [1] of 18 µM, a Kd [2] of over 167 µM and a Kd [3] of 18 µM. It also gave a Kd [4] of 32 µM.

Binder NPASA[pT]TLD [peptide 15, monophosphorylated APN 9-mer pThr63 (site 2)] has a Kd [13] of 45 µM.

For NKNAN[pS]SPV [peptide 1, APN 38–46 pSer43, as used in ITC], the Ka [14] was 403000 M⁻¹ and 488000 M⁻¹ and 497000 M⁻¹, the Kd [15] was 2.01 µM and the Kd [16] was 2.48 µM.

Work on B5 yielded a Kd [17] of over 83 µM and a Kd [12] of over 83 µM.

With PASATTLDQ (also: one phosphorylated Ser/Thr within Ser61–Thr64) [peptide 16, monophosphorylated APN 9-mer (noncanonical site of peptide 12)] the Kd [1] was over 167 µM and the Kd [13] was over 333 µM.
